In patent US20180141989A1 (BOARD OF REGENTS OF THE UNIVERSITY OF OKLAHOMA, published 2018):
Where no end group is shown, it is not given here.

Columns and labels:
[1] = target: T1, MBP-RAMP1 ECD-(GS)5-CLR ECD-H6 fusion protein (human, UniProt O60894 24-111; Q16602 29-144); assay: ratio of FP KI values at the two ECD complexes
T1 construct: range 24-111;range 29-144; Tethered ECD fusion made in E. coli; used in the FP assay at 15 nM; also called MBP-hRAMP1.24-111-(Gly-Ser)5-hCLR.29-144-H6
Experimental: (§1) Fluorescence polarization peptide binding assay. […] The reactions (50 μL) were incubated for 2 hours at room temperature to reach equilibrium, and the anisotropy was measured in black half-area 96-well plates using a BMG LABTECH's POLARstar® Omega plate reader (Ortenberg, Germany). The reaction buffer was 50 mM HEPES, pH 7.5, 150 mM NaCl, 0.5 mg/ml fatty acid-free BSA, 0.5 mM EDTA, 0.5 mM maltose. KI values were calculated using nonlinear regression fitting of the competition curves to the exact analytical equations of Roehrl et al. (Biochemistry (2004) 43:16056-66) using GraphPad Prism 5.0 (GraphPad Software, San Diego Calif.).
(§2) The large size difference between the MBP-RAMP ECD-CLR ECD fusion proteins (˜65 kDa) and the probe (˜2.5 kDa) ensures a significant anisotropy difference between bound and free states of the probe. […] Kd values for the probe at each of the tethered ECD fusion proteins were determined in equilibrium saturation binding experiments (data not shown), and KI values were determined for unlabeled peptides in equilibrium competition experiments (Table 1; FIGS. 2-5). The data were analyzed according to exact analytical equations using non-linear regression curve fitting in GraphPad Prism 5.0 (GraphPad Software) via user-defined equations.

[2] = target: T1, MBP-RAMP1 ECD-(GS)5-CLR ECD-H6 fusion …; assay: FP competition vs FITC-AM W/W probe, purified ECD fusion
Experimental: as §1, §2

[3] = target: T2, MBP-RAMP1 ECD-(GS)5-CTR ECD-H6 fusion protein (human, UniProt O60894 27-118; P30988 34-141, limits assumed); assay: AlphaLISA competition vs Biotin-AC413 probe, purified AMY1 ECD fusion
T2 construct: extracellular domain; CTR-based proteins were produced in HEK293T cells (N-glycosylated); also called RAMP1-CTR ECD; RAMP1-CTR
T2 sequence (O60894 other isoform, or with tags, fused parts or gaps limits assumed): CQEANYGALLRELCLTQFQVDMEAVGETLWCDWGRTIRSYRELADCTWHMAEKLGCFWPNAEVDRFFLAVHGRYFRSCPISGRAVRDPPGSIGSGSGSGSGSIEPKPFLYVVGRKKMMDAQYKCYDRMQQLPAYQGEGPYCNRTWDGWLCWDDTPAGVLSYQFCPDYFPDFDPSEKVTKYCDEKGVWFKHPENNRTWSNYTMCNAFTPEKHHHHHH
Experimental: A single representative experiment conducted with duplicate samples is shown. […] The reactions were incubated for 5 hours at room temperature to reach equilibrium, and the luminescence was measured in white 384-well plates using a BMG LABTECH's POLARstar® Omega plate reader (Ortenberg, Germany). The reaction buffer was 50 mM MOPS, pH 7.4, 150 mM NaCl, 7 mg/ml fatty acid-free BSA and the streptavidin-coated donor beads and MBP-antibody coated acceptor beads were at 15 μg/ml each. IC₅₀ values were calculated using nonlinear regression fitting of the competition curves to a three-parameter, one-site competitive binding equation in GraphPad Prism 5.0 (GraphPad Software, San Diego Calif.).

[4] = target: T1, MBP-RAMP1 ECD-(GS)5-CLR ECD-H6 fusion …; assay: FP (anisotropy) competition: displaces FITC-Ahx-AM(37-52)NH2[S45W,Q50W] probe (7 nM) from MBP-RAMP1 ECD-(GS)5-CLR ECD-H6 (15 nM) [A-C) panel C]
Experimental: as §1
as §1, with “Single representative experiments conducted with duplicate samples are shown.” for “Fluorescence polarization peptide binding assay.”, “reactions” for “reactions (50 μL)”

[5] = target: MBP-RAMP2 ECD [L106R]-(GS)5-CLR ECD-H6 fusion protein (human) (UniProt O60895); assay: FP competition vs FITC-AM W/W probe, purified ECD fusion
MBP-RAMP2 ECD [L106R]-(GS)5-CLR ECD-H6 fusion protein (human), sequence (O60895 other isoform, or with tags, fused parts or gaps L106R L106R): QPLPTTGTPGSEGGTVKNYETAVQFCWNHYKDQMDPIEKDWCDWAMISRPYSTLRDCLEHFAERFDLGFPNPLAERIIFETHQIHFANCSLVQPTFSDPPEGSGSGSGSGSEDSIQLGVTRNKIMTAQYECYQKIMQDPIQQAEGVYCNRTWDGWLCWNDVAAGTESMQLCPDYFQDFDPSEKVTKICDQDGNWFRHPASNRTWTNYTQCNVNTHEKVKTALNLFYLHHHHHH

[6] = target: T1, MBP-RAMP1 ECD-(GS)5-CLR ECD-H6 fusion …; assay: FP (anisotropy) competition: displaces FITC-Ahx-AM(37-52)NH2[S45W,Q50W] probe (7 nM) from MBP-RAMP1 ECD-(GS)5-CLR ECD-H6 (15 nM) [D-E) panel E]
Experimental: as §1
as §1, with “Single representative experiments conducted with duplicate samples are shown.” for “Fluorescence polarization peptide binding assay.”, “reactions” for “reactions (50 μL)”

[7] = target: T1, MBP-RAMP1 ECD-(GS)5-CLR ECD-H6 fusion …; assay: FP (anisotropy) competition: displaces FITC-Ahx-AM(37-52)NH2[S45W,Q50W] probe (7 nM) from MBP-RAMP1 ECD-(GS)5-CLR ECD-H6 (15 nM) [D-E) panel D]
Experimental: as §1
as §1, with “Single representative experiments conducted with duplicate samples are shown.” for “Fluorescence polarization peptide binding assay.”, “reactions” for “reactions (50 μL)”

[8] = target: T1, MBP-RAMP1 ECD-(GS)5-CLR ECD-H6 fusion …; assay: FP (anisotropy) competition: displaces FITC-Ahx-AM(37-52)NH2[S45W,Q50W] probe (7 nM) from MBP-RAMP1 ECD-(GS)5-CLR ECD-H6 (15 nM) [I-J) lower graph]
Experimental: as §1

[9] = target: MBP-RAMP2 ECD [L106R]-(GS)5-CLR ECD-H6 fusion protein (human) (UniProt O60895); assay: FP (anisotropy) competition: displaces FITC-Ahx-AM(37-52)NH2[S45W,Q50W] probe (7 nM) from MBP-RAMP2 ECD[L106R]-(GS)5-CLR ECD-H6 (110 nM) [I-K) panel K]
[10] = target: T1, MBP-RAMP1 ECD-(GS)5-CLR ECD-H6 fusion …; assay: FP (anisotropy) competition: displaces FITC-Ahx-AM(37-52)NH2[S45W,Q50W] probe (7 nM) from MBP-RAMP1 ECD-(GS)5-CLR ECD-H6 (15 nM) [F-H) panel G]
Experimental: as §1

[11] = target: MBP-RAMP2 ECD [L106R]-(GS)5-CLR ECD-H6 fusion protein (human) (UniProt O60895); assay: FP (anisotropy) competition: displaces FITC-Ahx-AM(37-52)NH2[S45W,Q50W] probe (7 nM) from MBP-RAMP2 ECD[L106R]-(GS)5-CLR ECD-H6 (110 nM) [A-C) panel B]
[12] = target: MBP-RAMP2 ECD [L106R]-(GS)5-CLR ECD-H6 fusion protein (human) (UniProt O60895); assay: AlphaLISA competition vs Biotin-AM probe
[13] = target: MBP-RAMP2 ECD [L106R]-(GS)5-CLR ECD-H6 fusion protein (human) (UniProt O60895); assay: AlphaLISA competition: displaces Biotin-AM probe (25 nM) from the RAMP2-CLR ECD fusion protein (5 nM)
[14] = target: T1, MBP-RAMP1 ECD-(GS)5-CLR ECD-H6 fusion …; assay: FP (anisotropy) competition: displaces FITC-Ahx-AM(37-52)NH2[S45W,Q50W] probe (7 nM) from MBP-RAMP1 ECD-(GS)5-CLR ECD-H6 (15 nM) [A-C) panel B]
Experimental: as §1

[15] = target: T1, MBP-RAMP1 ECD-(GS)5-CLR ECD-H6 fusion …; assay: AlphaLISA competition: displaces Biotin-CGRP probe (50 nM) from the RAMP1-CLR ECD fusion protein (5 nM)
Experimental: The probes were as described in Moad and Pioszak (Protein Sci. (2013) 22:1775-85). The reactions were incubated for 5 hours at room temperature to reach equilibrium, and the luminescence was measured in white 384-well plates using a BMG LABTECH's POLARstar® Omega plate reader (Ortenberg, Germany). The reaction buffer was 50 mM MOPS, pH 7.4, 150 mM NaCl, 7 mg/ml fatty acid-free BSA, and the streptavidin-coated donor beads and MBP-antibody coated acceptor beads were at 15 μg/ml each. IC₅₀ values were calculated using nonlinear regression fitting of the competition curves to a three-parameter, one-site competitive binding equation in GraphPad Prism 5.0 (GraphPad Software, San Diego Calif.).

[16] = target: MBP-RAMP2 ECD [L106R]-(GS)5-CLR ECD-H6 fusion protein (human) (UniProt O60895); assay: FP (anisotropy) competition: displaces FITC-Ahx-AM(37-52)NH2[S45W,Q50W] probe (7 nM) from MBP-RAMP2 ECD[L106R]-(GS)5-CLR ECD-H6 (110 nM) [A-C) panel A]
[17] = target: T1, MBP-RAMP1 ECD-(GS)5-CLR ECD-H6 fusion …; assay: FP (anisotropy) competition: displaces FITC-Ahx-AM(37-52)NH2[S45W,Q50W] probe (7 nM) from MBP-RAMP1 ECD-(GS)5-CLR ECD-H6 (15 nM) [F-H) panel F]
Experimental: as §1

[18] = target: MBP-RAMP2 ECD [L106R]-(GS)5-CLR ECD-H6 fusion protein (human) (UniProt O60895); assay: ratio of FP KI values at the two ECD complexes
[19] = target: MBP-RAMP2 ECD [L106R]-(GS)5-CLR ECD-H6 fusion protein (human) (UniProt O60895); assay: AlphaLISA or AlphaScreen competition assays
[20] = target: MBP-RAMP2 ECD [L106R]-(GS)5-CLR ECD-H6 fusion protein (human) (UniProt O60895); assay: FP (anisotropy) competition: displaces FITC-Ahx-AM(37-52)NH2[S45W,Q50W] probe (7 nM) from MBP-RAMP2 ECD[L106R]-(GS)5-CLR ECD-H6 (110 nM) [G-H) panel G]

T1 sequence (O60894 other isoform, or with tags, fused parts or gaps limits assumed, form in doubt): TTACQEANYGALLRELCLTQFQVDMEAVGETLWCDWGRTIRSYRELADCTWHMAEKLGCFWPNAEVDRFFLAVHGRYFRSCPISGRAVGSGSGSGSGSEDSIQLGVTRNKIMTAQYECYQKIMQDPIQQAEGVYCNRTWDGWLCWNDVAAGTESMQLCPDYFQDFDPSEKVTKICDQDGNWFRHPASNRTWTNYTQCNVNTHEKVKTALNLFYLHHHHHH

Row | Binder | Ki [2] [nM] | pKI [2] | Ki [5] [nM] | pKI [5] | other results
1 | FVPTDVGPWSF-NH2 [CGRP(27-37)NH2 [N31D, S34P, K35W, A36S]] | 1.32 | 8.88 | 2450 | 5.61 | Receptor Selectivity (fold, over RAMP2-CLR ECD) [1]: 1860 fold; IC50 [3]: 260 nM; IC50 (read off the curve) [4]: ~10 nM
2 | FVPTDTGPWSF-NH2 [CGRP(27-37)NH2 [N31D, V32T, S34P, K35W, A36S]] | < 1 | > 9 | 2750 | 5.56 | Receptor Selectivity (fold, over RAMP2-CLR ECD) [1]: ≥ 2750 fold; IC50 (read off the curve) [6]: ~10 nM
3 | FVPTDTGPWGF-NH2 [CGRP(27-37)NH2 [N31D, V32T, S34P, K35W, A36G]] | 6.85 | 8.16 | – | – | IC50 (read off the curve) [7]: ~30 nM
4 | DKWNVAPRSKISPWGY-NH2 (also called AM(37-52)NH2 [D39W, Q50W]) [AM(37-52) D39W/Q50W] | – | – | – | – | IC50 (read off the curve) [8]: ~400 nM; IC50 (read off the curve) [9]: 300 nM
5 | DKDNVAPRWLMSPWGF-NH2 [AM(37-52)NH2 [S45W, K46L, I47M, Q50W, Y52F]] | 0.78 | 9.11 | – | – | IC50 (read off the curve) [10]: ~10 nM
6 | DKDNVAPRSKISPWGY-NH2 [AM(37-52)NH2 [Q50W]] | 501 | 6.3 | 316 | 6.5 | IC50 (read off the curve) [11]: 600 nM; fold increase in affinity (over AM(37-52)NH2, implied) [12]: 100 fold; IC50 [13]: 44 nM; IC50 (read off the curve) [14]: ~1000 nM; IC50 [15]: 400 nM
7 | DKDNVAPRWKISPWGY-NH2 (also called S45W/Q50W double mutant) [AM(37-52)NH2 [S45W, Q50W]] | 44.7 | 7.35 | 81.3 | 7.09 | IC50 [13]: 20 nM; IC50 (read off the curve) [14]: ~100 nM; IC50 [15]: 17 nM; IC50 (read off the curve) [16]: 200 nM
8 | DKDNVAPRTLISPWGY-NH2 [AM(37-52)NH2[S45T, K46L, Q50W]] | 65.6 | 7.18 | 1570 | 5.8 | Receptor Selectivity (fold, over RAMP2-CLR ECD) [1]: 24 fold; IC50 (read off the curve) [17]: ~200 nM
9 | DKDNVAPRSKISPFGY-NH2 [AM(37-52)NH2 [Q50F]] | 10500 | 4.98 | 2140 | 5.67 | IC50 (read off the curve) [11]: 4000 nM; Receptor Selectivity (fold, over RAMP1-CLR ECD) [18]: 5 fold
10 | DKDNVAPRSKISPQGY-NH2 [AM(37-52)NH2] | – | – | 20400 | 4.69 | IC50 [13]: 5000 nM; IC50 [19]: 5000 to 15000 nM
11 | DKDNVAPRWLIGPWGF-NH2 [AM(37-52)NH2 [S45W, K46L, S48G, Q50W, Y52F]] | – | – | 1250 | 5.9 | IC50 (read off the curve) [20]: 200 nM
